Experimental data: the DeepSol protein solubility set

Test: soluble on expression in E. coli; label from the status in PepcDB or PDB records

Sequence | soluble on expression in E. coli
MNVLGRITAMPDLPEPLEGLKEIAYNLWWSWNPEAAELFQELDPALWKRFRGNPVKLLLELDPARLEALSASGYAARVQATREALRAYLEARRTKRGPLVAYFSAEYGFHSSLPIYAGGLGVLAGDHVKAASDLGLNLVGVGLFYHEGYFHQRLSPEGEQVEVYEPLRPEELPLVPVQDAEGRPVRVAVEFPGRLVHVGGYRVQVGAVPVYLLTTDLPENAPEDRQITARLYAAGLEARIQQELVLGLGGVRFLRALGLAPAFFHMNEGHSAFLGLERLRELVAEGYPFREALELARASALFTTHTPVPAGHDVFPLDLVDRYLGGFWEKLGVDRDTFLGLGLEEKPWGPVFSMSNLALRTAAQANGVSRLHGEVSRNMFRHLWPGLLAEEVPIGHVTNGVHTWTFLHPRLRRHYAEVFGPEWVERPEDPETWRVEGLGEAFWRIRQDLKLFLVREVRQRLYEQRRRNGEGPARLREAEKALDPEALTIGFARRFATYKRAVLLFKDPERLLRILKGPYPVQFVFAGKAHPKDEAGKAYLQELVSKIREYGLEDRMVVLEDYDMYLARVLTHGSDVWLNTPRRPMEASGTSGMKAALNGALNLSVLDGWWAEAYNGKNGFAIGDERVYESEEAQDVADAQALYDLLESEVIPLFYAKGLEGYSSGWMSMVHESLRTVGPYFSAGRMVRDYLALYERGALWEKEARARLEALKAFAEALSAFHALGVRPEVPGDLTLNGGRLEVGSVLEGEVPEGLRPHLRVQLVVRRLGGGLEVVDLEEVAPGRYRTAFRPTRPGSYTYGLRLALLHPVTGRVEWVRWA | soluble
VPPPGTMVMVERKVGSWVDGQPIDLQRDWRSWEQLPDSLKVAVIAGEDQHFAEHHGFDLPAIQQALAHNERGGSIRGASTLSQQVAKNVFLWSGRSWLRKGLEAWFTLLIETLWTKQRILEVYLNSAEWGPGVFGAQAAARYHFGLDAERLSRTQASQLAAVLPSPLKWSAARPGPYVRQRAAWIRQQMWQLGGDDYLLRLER | not soluble
MGSDKIHHHHHHMKRARAATNLPETRQPRSAHFAQAGQRWSDDVDASTTGVSKHDMCFAVASRESVRPYVLPRNKNDMADAEAICEAVTRPNMRFVAVKTAAQQSVLMLHRCRALLVRQRTMLANAIRAHLAEFGIVMPQGIRTLLTALIAPKDEVNDLPHLVRVALAPMAANLIELGQRIKGLEIEIAREHRGNETSRRLETIPGFGVMTSTAMAATVADPTAFKSGREFAAWLGLTPRESSSGGKQRLGGITKMGDGYLRTLLVVGATAVIRFAREEGSAKTAWIRKLMEKKPAKVVAVALANKMARIAWPLMTRGEVYRVIPA | not soluble
MGHHHHHHSHMNTKTMRLPPRRVLTADKRKERDAFISSVTDNPPEIAKFPSPPPKLVPPPVNPISKKSSTAAAEPIGSNQLMLAGYLSHEYLTQGTLFGEQWNQARAQAESSKIKPSHTVEPAEECEPKRKRYREVANLLRSDGAQLPGIVNPAQLARFLKL | soluble
MESELSGISNENQISFFGFSAGSFSDSIFNIYVDAWEEVCSNEFKNSLKKLTDKDRLCLLSFPFSDKTNEKAFKMMKRFCVTNIFRIPASVTLPECKKMLIASAKEHKSLKQVEKEFDEKLEKIRQLRIKLAKRHDELEAVNNAIEVLHVMEKSQEQLISQKRIVPDSPTRMSPV | not soluble
MQRVVVAIDAKRVDGEFMVFTHSGKKNTGILLRDWVVEVEKRGAGEILLTSIDRDGTKSGYDTEMIRFVRPLTTLPIIASGGAGKMEHFLEAFLAGADKALAASVFHFREIDMRELKEYLKKHGGSGQAVVVAIDAKRVDGEFMVFTHSGKKNTGILLRDWVVEVEKRGAGEILLTSIDRDGTKSGYDTEMIRFVRPLTTLPIIASGGAGKMEHFLEAFLAGADAALAASVFHFREIDMRELKEYLKKHGVNVRLEGLLEHHHHHH | soluble
GMKTNEVLETIKARRSVRAYDRKQIPADDLNAILEAGAYAPSGMHYETWHFTAVCNTVKLEELNERIKGAFAKSDDKHLRERGHSETYCCYYHAPTLVIVSNEPKQWWAGMDCACAIENMFLAATSLGIASCWINQLGTTCDDPEVRAYLTSLGVPENHKVYGCVALGYKAEGALLKEKTVKAGTITIVE | soluble
MSLDSPPIRVFVVEDQTKILKNQLRLFENHPEMDIIGTALSGEAALEEVPKLMPDVLLLDLGLPRMSGIDVTREVKARFPKIEILIFTIFDEEDKVLEAVKAGASGYLLKGAPVDKIIEAIKEVRAGGTVIQPNLARRLLRHFRVEPDASPLISPPAAPEPSASDLPQEPLLKPLSDREREILQLIAKGVSNSEAARLLDLSKATIRTHLEHIYRKLEVTNRVEAVTEGIRKGLISEGHHHHHH | soluble
MKGVNQQKKRLKVMTPLEKYQQDLNQEGFMHDSAQRNAVEHLDDLYRRFLELKVPEEPAKKSWKRFFKKEKPQKLTPEKGLYFWGGVGRGKTYLVDTFYDALPTERKMRIHFHRFMQRVHDELGELKQQSDPLLIVADKFKQETDIICFDEFFVSDITDAMILATLLEALFARGITLVATSNILPQDLYRNGLQRARFLPAISLIEQHCDIINVDSGVDYRLRTLEQAEIYHYPLDSDAETNMKGYFLQLASGCDYESTQIEINHRLIEVKAEGDGVVHFDFASLCESARSQHDYIELSRLYHTVLLSNVKIMGEVNDDAARRFIAMVDEFYERNVKLIISAEVDLTSIYQKGRLTFEFQRCQSRLIEMQSHEYLSKEHLSLEHHHHHH | not soluble
GPGSMLPTVPCFGSQWCIESVMDLSGLVPTSKELTEGQREHIRDLQYEIDEIWNRRGDYKIDSSAWEQMPLFMENITEEDLQRNADCAALASIAYDDVPPEEVAESRKQHGNRAIQLALDPKQVNKENLARATVHCYTEGLAAKCKDPVLNSQLYANRSLAQYIIHNYGHGLEDAQRAIILDPDYYKAYYRAARCAERIGKYDLALDLLAKGRRTNPAPVGRALEDFVDIERVCREGKERAESKKKKENLSTRVKAAQTSSTLRCVTSSGVRCSPRAEVSSEQMGVYGHHEPYFDSEGLLHVPILFMYDEYQQTDFMQDVSCDVCVGELLDELMPFPWDDRGRYQRIDDILVVYKIDGGVKDPKYYEVDLSLPLMEVFRSESYQMPALLPVLHIICKHSDMLTEWDVQMLR | soluble
GINLTPEEKFEVFGDFDPDQYEEEVRERWGNTDAYRQSKEKTASYTKEDWQRIQDEADELTRRFVALMDAGEPADSEGAMDAAEDHRQGIARNHYDCGYEMHTCLGEMYVSDERFTRNIDAAKPGLAAYMRDAILANAVRHTP | soluble
MSLTERRQATAIVRAHGHTSLARLTLLEDKSYCFSPSGESLIAFVQRGRGAIALGDPIGPARDREAIIQQFLRECQQNDWLPAFYQVLPDDLPLYQRQGLASDQIGQEAVIPLQDFSLQGKRGRGFRSTLSRLERAGYRFEVIPAAEIYPLLPELRFVSDTWLKRMKGPEKRFSVGWFDRDYLTSGSIAVVRSQDGQIQAFANWVEEFQRNELTLDLIRFLPSAESSTMEFLLVNTILAAKDRGFDSFSLGLSALSGLDQLDQPNQVEQGLDYLYRHLDRFYRFQGLHSFKEKFHPDWQPRYFVYPNLAAIPSLVVTLVRADSGDRWLDYFRANDEGHHHHHH | not soluble
MQITEALISEPGEIRRFVQQAVDHWPNLLAFHFTLYSAEGIYGQQIQTFCSSFHRRVHERITEHNHTVSPSAPVVLRWLREQHEGAQIRCLLLLSQTSICHPRVGVMADEECAQLVDLLQQTWSVISAGGQCRVERCFRVARPGSSGQYVALKTAVQSFMSQVIATIIR | not soluble
MGSDKIHHHHHHMKTVRIETFGCKVNQYESEYMAEQLEKAGYVVLPDGNAAYYIVNSCAVTKEVEKKVKRLIKSIRNRNKNAKIILTGCFAQLSPDEAKNLPVDMVLGIDEKKHIVDHINSLNGKQQVVVSEPGRPVYEKVKGSFEDRTRSYIKVEDGCDNTCTYCAIRLARGTRIRSKPLEIFKEEFAEMVMKGYKEIVITGVNLGKYGKDMGSSLAELLKVIEKVPGDYRVRLSSINVEDVNDEIVKAFKRNPRLCPHLHISVQSGSDDVLKRMGRKYKISDFMRVVDKLRSIDPDFSITTDIIVGFPGETDADFQRTLELVEKVEFSRVHIFRFSPRPGTPASRMEGGVPESKKKERLDVLKEKAKDVSIRYRKRIIGKERKVLAEWYVMKGVLSGYDEYYVKHEFVGNRVGEFHSVRVKSLSEEGVISCRADMVEGKVPARG | not soluble
MSLGCTNFIQVGTVLGAPNVFLIGDAREVGHQGYENILREAKKVLTFDLDEKLRGFKNIVVYPGTFDFEGIVKNLDSDAKITVDIAYDVNDADELSRVYGASHALAISTSSELFSSLALENLGPLLKACKTRSAKHLLLKENRGGSRLFDLESGESWEIPATLARTVNSVGVGDVYTAVFAALIDHGALTAALRGMQAATRYAQTTFPDDFKRDVQRDFKLTPDEVLSLGGVLLPWHDRPHFEIYLAAPDFSYMEKAEVDAAVEALLYHNFTVRRPVQDNGEACPGTPAEDLRSYYDRDVELLRRCSLVFAVPLNRDPGTLVEIGLAIAAGTPVVTYDPRQENNNTMVICGSDAYSDDLDQCLNSTFELLAKLREQAKEGHHHHHH | not soluble
MSQLMNAHDRRNEPAPNAPPEFQLQNRTRPAPTPIEYITLSSDDEIEVIPPPPKRAKMMEEQKPKDLLENPQLPEVPSSSASFVIPQIVVDNEEVPEDPRMKTPSPIQGASVAMPVRARIQESPKVSRDPTPLSRASSVVIPEVPAVSEPEPLPVEVLAISIPTTSPDTAPSTSSSVETVESVTEVVAISSAEASSDAPARSPLKKKVANSVKPVVLPSRKSTRNKKDMNQIKEDEELVSNFNNGIGVISRGTIVPRGLSRTPFHFKKEATDDKAGKVKDMLKIDMQPVFTPAGHSSKDLIKRKARNSLEPSTSDADISFMKNERGKIRTGEKFQATIPDIEPSSTLTEYMDQEDKEEIFWETLDMDKDNLEESKKFHETLRNVYWRAIWRQFQGHIPFETALQHLMKNNLDFAQSLETIDENLKSLPQSFKEPCVAQVKIFDKLLQDKKTTRRQLQEKAMRNYHIAEVQQYHYRFRKFFKYQEKYGVVCNCAEKLCNNLKFEPRYGCTNCKKNVKSSSDHGATEKLCLICQTYQKLTGNVRPARNVEFCDDELEKIYHWSQKEEDLNRTLSREEFEELVREEKNKKWKNNDLSAEETAMLNQKELRIPNRRHRTHLSDQEKQARGEKICAQLQPYVLPHFSKCNCKRMGRSSWRCETEGKSSFSIQERKDYFREVRDCKGDLQQVARNLKVAPEVVRAFINIYGIEYDLEIYFPNKKLPNLIPIVYDIPPSNLPPIIPDGSSNSSSRDGSPYIPPEERSPKKRRSN | not soluble
MSLAFPKIISVDDHTVEPPDVWRDRLPKKYQDTGPRIVRAPLKEMTFLGGKFAPVMGGPGDDGPLGDWWVYEDLHRPLTRLDTAVGYSRDEIKLEVITYEQMRPGSYDVPRRLADMDVNHVQSALCFPTFPRFCGQTFTEAKDRELGLLGVRAYNDWMVEEWCGPDAHGRLIPLTLVPLWDARLAAAEVRRNAARGVRAVAFSEIPPHLGLPSVHTDDWDPFLAACDETGTVIAMHIGSSSRMPSTSADAPPAVGSTITFANCCFSMVDWLMSGKFERFPNLRVMYAEGQIGWIPYILERADVVWEENRGWGGVADKVHRPPSELFAGHVFGCFFDDAFGLRNLDAIGIGNVLYETDYPHSDSTWPKSREVGEAQMGHLEAEVVERIVRGNAIELLGLTDDGEGHHHHHH | not soluble
MGSDKIHHHHHHMLIIKLSAMGDSLCLFPTVRQLALAFPGATIDWLTSNRSNPALFAELPFIRTIFVTPPSLVRALTYLGGWLFRARRYDLTIDYDQYYCISELIAGMSACSAGFRTSLKGTTFSLSVEYDPLLNEKAMFRKLTERVFATYGVSIPDYRAELPELIERFVPSAQLQTLRARLKAQGKPIVGIYPGSGANATFRRWGVGNYVALIERYKDRYAFVLLGGPDERDLQADLKDIDGVFNLIDSMSFKEVAWFLKHTIDLLVGNDGGLLHVAESQAVATVGIFGPALYRKWGSSLERSIGVEKELPCRPCLKNYLGTVPSACCLGTTACLSAISTDDVAQAMHRAVHRIHVVPIAHA | not soluble
